# Test results: US20100204104A1
# B1: sRII-9Gly fusion protein (receptor)
# chain: IPPHVQKSVNNDMIVTDNNGAVKFPQLCKFCDVRFSTCDNQKSCMSNCSITSICEKPQEVCVAVWRKNDENITLETVCHDPKLPYHDFILEDAASPKCIMKEKKKPGETFFMCSCSSDECNDNIIFSEEYNTSNPDLHMGGGGGGGGGIDIPPHVQKSVNNDMIVTDNNGAVKFPQLCKFCDVRFSTCDNQKSCMSNCSITSICEKPQEVCVAVWRKNDENITLETVCHDPKLPYHDFILEDAASPKCIMKEKKKPGETFFMCSCSSDECNDNIIFSEEYNTSNPDL
# Legend:
# [1] = biological target: TGF-β1 (UniProt P01137); experiment: cell-based or functional assay
# [2] = biological target: T1, TGF-β3 (UniProt P10600); experiment: cell-based or functional assay
# T1 sequence (looked up): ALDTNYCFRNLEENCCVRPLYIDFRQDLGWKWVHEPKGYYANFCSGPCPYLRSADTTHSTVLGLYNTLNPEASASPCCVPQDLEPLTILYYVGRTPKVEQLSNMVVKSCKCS
# [3] = biological target: TGF-β1 (UniProt P01137); experiment: SPR (Biacore), TGF-β1 on chip, HEK 293-produced sRII-9Gly 1.2-90 nM injected, 1:1 model
# [4] = biological target: T1, TGF-β3; experiment: SPR (Biacore), TGF-β3 on chip, HEK 293-produced sRII-9Gly 1.2-90 nM injected, 1:1 model
# [5] = biological target: TGF-β1 (UniProt P01137); experiment: SPR (Biacore), TGF-β1 on chip, CHO-produced sRII-9Gly (lot 1) 1.2-90 nM injected, 1:1 model
# [6] = biological target: TGF-β1 (UniProt P01137); experiment: SPR (Biacore), TGF-β1 on chip, CHO-produced sRII-9Gly (lot 2) 1.2-90 nM injected, 1:1 model
# [7] = biological target: T1, TGF-β3; experiment: SPR (Biacore), TGF-β3 on chip, CHO-produced sRII-9Gly (lot 1) 1.2-90 nM injected, 1:1 model
# [8] = biological target: T1, TGF-β3; experiment: SPR (Biacore), TGF-β3 on chip, CHO-produced sRII-9Gly (lot 2) 1.2-90 nM injected, 1:1 model
# Chain of UniProt P01137 (P01137 279-390 limits assumed): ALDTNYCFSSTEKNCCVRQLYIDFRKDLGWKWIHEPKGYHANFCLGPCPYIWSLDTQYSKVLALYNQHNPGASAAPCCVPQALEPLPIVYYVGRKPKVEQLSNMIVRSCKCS
binder,measurement,setting,value
B1,"IC50 (nM), A549/IL-11 cell bioassay, CHO-produced sRII-9Gly Lot 9",[1],0.02 nM
same,"IC50 (nM), A549/IL-11 cell bioassay, CHO-produced sRII-9Gly Lot 10",[1],0.018 nM
same,"IC50 (nM), A549/IL-11 cell bioassay, CHO-produced sRII-9Gly Lot 11",[1],0.014 nM
same,"IC50 (nM), A549/IL-11 cell bioassay, CHO-produced sRII-9Gly Lot 12",[1],0.015 nM
same,"IC50 (nM), A549/IL-11 cell bioassay, CHO-produced sRII-9Gly Lot 13",[1],0.016 nM
same,"IC50 (nM), A549/IL-11 cell bioassay, sRII-9Gly Lot 4",[1],0.039 nM
same,"IC50 (nM), A549/IL-11 cell bioassay, sRII-9Gly Lot 5",[1],0.053 nM
same,"IC50 (nM), A549/IL-11 cell bioassay, sRII-9Gly Lot 6 (pH 7.0)",[1],0.054 nM
same,"IC50 (nM), A549/IL-11 cell bioassay, sRII-9Gly Lot 7 (pH 8.5)",[1],0.062 nM
same,"IC50 (nM), A549/IL-11 cell bioassay, sRII-9Gly Lot 8 (pH 9.0)",[1],0.047 nM
same,"IC50 (ng/ml), A549/IL-11 cell bioassay, sRII-9Gly Lot 4",[1],1.34 ng/mL
same,"IC50 (ng/ml), A549/IL-11 cell bioassay, sRII-9Gly Lot 5",[1],1.8 ng/mL
same,"IC50 (ng/ml), A549/IL-11 cell bioassay, sRII-9Gly Lot 6 (pH 7.0)",[1],1.82 ng/ml
same,"IC50 (ng/ml), A549/IL-11 cell bioassay, sRII-9Gly Lot 7 (pH 8.5)",[1],2.12 ng/ml
same,"IC50 (ng/ml), A549/IL-11 cell bioassay, sRII-9Gly Lot 8 (pH 9.0)",[1],1.59 ng/ml
same,"IC50 (nM), A549/IL-11 cell bioassay, CHO-produced sRII-9Gly Lot 9",[2],0.035 nM
same,"IC50 (nM), A549/IL-11 cell bioassay, CHO-produced sRII-9Gly Lot 10",[2],0.29 nM
same,"IC50 (nM), A549/IL-11 cell bioassay, CHO-produced sRII-9Gly Lot 11",[2],0.008 nM
same,"IC50 (nM), A549/IL-11 cell bioassay, CHO-produced sRII-9Gly Lot 12",[2],0.07 nM
same,"IC50 (nM), A549/IL-11 cell bioassay, CHO-produced sRII-9Gly Lot 13",[2],0.018 nM
same,Kd,[3],8.2 nM
same,koff,[3],0.0011 s⁻¹
same,Kd,[4],2.1 nM
same,koff,[4],0.00034 s⁻¹
same,Kd,[5],6.3 nM
same,koff,[5],0.00117 s⁻¹
same,Kd,[6],9.8 nM
same,koff,[6],0.0011 s⁻¹
same,Kd,[7],5 nM
same,koff,[7],0.00131 s⁻¹
same,Kd,[8],6.8 nM
same,koff,[8],0.00085 s⁻¹
